Experimental data published in patent US20150299259A1 (FORSCHUNGSZENTRUM JUELICH, published 2015).
Where no end group is shown, it is not given here. [ ]: non-standard residue; d: D form.

Assays:
[1] = target: full-length tau protein (441 amino acids) (UniProt P10636-8 1-441, limits assumed); experiment: cell-based or functional assay
[2] = target: T1, PHF-6 (6-mer tau fragment 306VQIVYK311); experiment: regular phage display and single-phage ELISA on L-PHF-6 fibrils
T1 construct: Used as fibrillary (aggregated) material; The mirror image selections used its synthetic D-enantiomer (D-PHF-6); also called L-PHF-6; aggregated tau partial peptide
T1 peptide: VQIVYK
Experimental: A phage display kit made by Biolabs was used for the following selections. At the same time, a regular phage display was carried out for the selection of L-peptides. In this regard, obtaining binding motifs after database searches allows conclusions to be drawn concerning previously unknown binding partners in vivo. Moreover, binding partners can later be tested as D-peptides or retro-inverso peptides. After selection, enriched phages were isolated and single-phage ELISA assays were carried out. […] The D-peptides Apt and Knt stem from selections against […]. Against L-PHF-6, a peptide having the sequence […] was selected, which we also analyzed in D-enantiomeric form (TD28) and as a retro-inverso peptide (TD28ri).

Chain of full-length tau protein (441 amino acids) (P10636 other isoform, or with tags, fused parts or gaps limits assumed): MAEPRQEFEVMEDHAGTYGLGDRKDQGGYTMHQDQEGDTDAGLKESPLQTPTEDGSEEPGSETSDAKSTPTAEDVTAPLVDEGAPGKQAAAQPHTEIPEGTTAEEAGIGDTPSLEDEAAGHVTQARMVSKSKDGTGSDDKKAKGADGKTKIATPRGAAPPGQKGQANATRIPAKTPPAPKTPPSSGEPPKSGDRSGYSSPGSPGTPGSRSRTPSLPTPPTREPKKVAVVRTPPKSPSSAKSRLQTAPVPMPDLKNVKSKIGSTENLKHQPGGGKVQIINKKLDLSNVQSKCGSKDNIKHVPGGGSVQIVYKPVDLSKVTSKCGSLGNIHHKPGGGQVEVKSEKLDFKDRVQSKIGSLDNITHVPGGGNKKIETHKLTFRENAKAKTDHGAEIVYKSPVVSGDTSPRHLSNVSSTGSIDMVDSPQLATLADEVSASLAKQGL

B1: peptide having the sequence TTSLQMRLYYPP (peptide)
peptide: TTSLQMRLYYPP
modifications: not fully specified
notes: L-peptide selected by regular phage display against L-PHF-6; also called TL28
[1]
  DLS particle size Day 1 (Tau + AA + peptide, 1:10): 5 fold
  DLS particle size Day 8 (Tau + AA + peptide, 1:10): 4 fold
[2]
  binding result: binds

## [dT][dL][dK][dI][dV][dW] [D-enantiomeric peptide tlkivw described by Sievers et al.]
[1]
  DLS particle size Day 1 (Tau + AA + peptide, 1:10): 6 fold
  DLS particle size Day 8 (Tau + AA + peptide, 1:10): 6 fold
